Key:
[1] = substrate: Nc1ncnc2c1ncn2[C@@H]1O[C@H](COP(=O)(O)OP(=O)(O)OP(=O)(O)O)[C@@H](O)[C@H]1O; assay: purified protein; type: biochemical, Deinococcus murrayi; details: ssDNA-dependent (80-nt oligonucleotide, 12.16 μM nucleotides), 11.56 mM MgCl2, 20 mM Tris-HCl pH 7.5, 37 °C, Hill fit, n 1.1
[2] = substrate: Nc1ncnc2c1ncn2[C@H]1C[C@H](O)[C@@H](COP(=O)(O)OP(=O)(O)OP(=O)(O)O)O1; assay: purified protein; type: biochemical, Deinococcus murrayi; details: ssDNA-dependent (80-nt oligonucleotide, 12.16 μM nucleotides), 11.56 mM MgCl2, 20 mM Tris-HCl pH 7.5, 37 °C, Hill fit, n 1.0

B1: DmuRecA (Deinococcus murrayi) (protein)
chain: MSKDNPKDFGTPSDSKERLKAIETAMTQIEKAFGKGSIMRLGAESKLDVQAVSTGSLSLDLALGVGGIPRGRITEIYGPESGGKTTLALSVIAQAQKAGGTCAFIDAEHALDPVYARSLGVNTDELLVSQPDNGEQRLEIMELLVRSGAIDVVVVDSVAALTPRAEIEGEMGDSLPGLQARLMSQALRKLTAILSKTGTAAIFINQVREKIGVMYGNPETTTGGRALKFYASVRLDVRKIGQPVKMGNDAVGNTVKVKTVKNKVAPPFKEVELTLMYGKGFDQLSDLVTLASDMDIIKKAGSFYSYGEDRLGQGKEKAIAYIAERPELEAEIRERVLSAIKEGRAGDVPGVASVPAVAE
notes: heterogeneous oligomers
Work on B1 yielded a Km [1] of 310 ± 9 µM, a kcat [1] of 0.13 ± 0.004 s⁻¹ and a kcat/Km [1] of 430 ± 18 M⁻¹ s⁻¹. It also gave a Km [2] of 280 ± 7 µM, a kcat [2] of 0.14 ± 0.004 s⁻¹ and a kcat/Km [2] of 500 ± 25 M⁻¹ s⁻¹.

From publication PMC3103430, “RecA Proteins from Deinococcus geothermalis and Deinococcus murrayi - Cloning, Purification and Biochemical Characterisation” (BMC Molecular Biology, 2011)
